{"source": "paper PMC10490071", "experiment_in_all_cases": "SEC-MALS + native gel or EMSA; static light scattering (DynaPro, Wyatt) after Superdex 200, 100 uL at >1 mg/mL in 10 mM PBS pH 7.4, flow 0.45 mL/min, LS, UV and dRI detection; 10% native-PAGE, 1 umol protein loaded; oligomeric state in solution", "key": {"[1]": {"biological_target": "rFIP-nha N5+39A double glycosylation mutant, expressed in P. pastoris (Nectria haematococca)"}, "[2]": {"biological_target": "rFIP-nha N5A glycosylation mutant, expressed in P. pastoris (Nectria haematococca)"}, "[3]": {"biological_target": "rFIP-nha N39A glycosylation mutant, expressed in P. pastoris (Nectria haematococca)"}, "[4]": {"biological_target": "rFIP-nha wild-type (fungal immunomodulatory protein from Nectria haematococca), expressed in P. pastoris (Nectria haematococca)"}}, "data": [{"substance": "rFIP-nha N5+39A double glycosylation mutant, expressed in P. pastoris (natural protein)", "values": [{"measurement": "stoichiometry N", "setting": "[1]", "result": 4}]}, {"substance": "rFIP-nha N5A glycosylation mutant, expressed in P. pastoris (natural protein)", "values": [{"measurement": "stoichiometry N", "setting": "[2]", "result": 4}]}, {"substance": "rFIP-nha N39A glycosylation mutant, expressed in P. pastoris (natural protein)", "values": [{"measurement": "stoichiometry N", "setting": "[3]", "result": 4}]}, {"substance": "rFIP-nha wild-type (fungal immunomodulatory protein from Nectria haematococca), expressed in P. pastoris (natural protein)", "values": [{"measurement": "stoichiometry N", "setting": "[4]", "result": 4}]}]}
